Experimental findings from patent publication US20220289841A1 (CHILDREN S HOSPITAL OF PHILADELPHIA, published 2022) are described below.

This assay deals with T1, full-length CD22 (UniProt P20273 20-847, limits assumed).
T1 construct: Re-expressed in OCI-Ly10 cells whose endogenous CD22 was deleted by CRISPR; also called CD22 full length (FL); CD22-full length
T1 sequence (looked up): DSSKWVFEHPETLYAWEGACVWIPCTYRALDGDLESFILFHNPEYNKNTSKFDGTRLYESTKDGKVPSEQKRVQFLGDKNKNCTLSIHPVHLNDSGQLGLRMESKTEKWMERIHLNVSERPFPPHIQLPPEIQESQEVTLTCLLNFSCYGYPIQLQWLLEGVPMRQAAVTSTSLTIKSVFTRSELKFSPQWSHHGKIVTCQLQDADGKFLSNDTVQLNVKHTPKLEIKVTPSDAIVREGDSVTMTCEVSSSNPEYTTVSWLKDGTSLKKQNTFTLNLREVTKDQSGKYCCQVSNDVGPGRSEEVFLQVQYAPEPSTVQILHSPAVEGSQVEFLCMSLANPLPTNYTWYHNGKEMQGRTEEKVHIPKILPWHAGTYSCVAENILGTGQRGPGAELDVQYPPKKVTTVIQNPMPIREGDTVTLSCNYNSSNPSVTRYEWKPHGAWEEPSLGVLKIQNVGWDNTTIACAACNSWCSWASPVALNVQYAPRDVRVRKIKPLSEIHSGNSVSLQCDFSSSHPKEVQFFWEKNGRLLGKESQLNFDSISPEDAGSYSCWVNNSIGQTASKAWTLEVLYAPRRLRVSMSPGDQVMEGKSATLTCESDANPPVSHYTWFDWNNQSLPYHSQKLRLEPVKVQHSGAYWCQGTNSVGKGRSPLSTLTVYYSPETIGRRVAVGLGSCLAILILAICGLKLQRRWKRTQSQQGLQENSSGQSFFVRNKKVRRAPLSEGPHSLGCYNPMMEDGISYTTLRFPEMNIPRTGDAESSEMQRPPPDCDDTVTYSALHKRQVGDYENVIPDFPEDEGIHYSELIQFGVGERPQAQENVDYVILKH
Kind of assay: OCI-Ly10 cells with endogenous CD22 deleted by CRISPR, reconstituted with full-length CD22; Western blot (FIG. 5B). An excerpt: One top event was the increased skipping of exon 5-6 (Δex5-6) in CD22 in B-ALL. The inventors validated the RNA expression of this event in 18 out of 18 primary B-ALL samples with RT-PCR. And using Nanopore-based long read RNA sequencing, they confirmed the Δex5-6 event exists within a larger translatable transcript in B-ALL cell lines and B-ALL patient-derived xenografts (PDX). BALB/C mice were then immunized against a peptide containing the junction site of exon 4 and 7 to generate hybridomas and obtain a monoclonal antibody (mAb) against CD22 Δex5-6. To validate the specificity of the identified mAb, the inventors used CRISPR to delete endogenous CD22 in OCI-Ly10 cells and reconstituted the cells with either CD22 Δex5-6 or full length CD22. […] The inventors also validated that this mAb specifically binds to endogenously expressed CD22 Δex5-6 in multiple B-ALL cell lines and B-ALL patient-derived xenografts (PDX) by immunoprecipitation and Western blot analysis. In next steps, the inventors plan to develop antibody-drug conjugates and chimeric antigen receptors from our mAb for further therapeutic testing.
Background: In western blotting, separated proteins are transferred to a membrane and probed.

B1: Clone 11F11 monoclonal antibody against CD22 Δex5-6 (antibody, V domains shown)
VH: RVQLQQPGADLVRPGASVKLSCKASGYTFTSYWMSWVKQRPGQGLEWIGMIDPSDSEAHYNQMFRDKATLTVDNSSSTAYMVLSSLTSEDSAVYYCSNDFDYWGQGTTLTVSS
VL: not shown
notes: Mouse hybridoma antibody, from BALB/C mice immunized with a peptide containing the exon 4/exon 7 junction; No isotype is stated for the clone; also called the mAb; CD22 Δex5-6 antibody
Consider B1, for which the binding result is “no binding”.
